The supplement of paper PMC9170038

Tested on: MS2 coat protein
Assay: apparent KD of MS2 coat protein; designed switch direction (-1 OFF switch, 1 ON switch): 1; higher = weaker reporter binding
Outline: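 Designed RNA switches with common flanks were made on Illumina chips by stalled E. coli RNA polymerase. Titration with SNAP-549-labelled MS2 coat protein doubled from 0.7 or 1.5 nM up to 3 µM. Apparent KD is each design's median over clusters after curve-fitting normalised fluorescence.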

[1] = input ligand: microRNA oligo, concentration not stated
[2] = Eterna round: R95, input ligand: FMN 200 uM
[3] = Eterna round: R95, input ligand: microRNA oligo, concentration not stated
[4] = Eterna round: R95, input ligand: none

Sequence | apparent KD of MS2 coat protein (input ligand: FMN 200 uM) | apparent KD of MS2 coat protein [1] | apparent KD of MS2 coat protein (input ligand: none) | apparent KD of MS2 coat protein [2] | apparent KD of MS2 coat protein [3] | apparent KD of MS2 coat protein [4]
CUGAGCAAUCGAGGAUAUCACGUCGUUUAGACGUGAGAAGGCGAUCAUAACAUGAGGAUCACCCAUGUAUUACAUGAAGCUCAG [SSNG1/4-A3] (Eterna round: R96, puzzle: Same State NG 1) | 13.6 nM | 10.1 nM | 13.3 nM |  |  | 
GAGAGAGGGUGAGGAUAUUUAGUGAUAAUGAUAAAAGAAGGCACAGACAUGAGGAUCACCCAUGUGGGAAUAAUCCAGAGAGAG [Parity 4 - Jieux - Same State NG 1] (Eterna round: R96, puzzle: Same State NG 1) |  | 238 nM |  |  |  | 
GGAGCCGGUACUGAGGAUAUUCAUAUUAAAACAUGAGGAUCACCCAUGUAGGCCAGAAGGCCUUGGGAGAAGGCAGAUCGGCUCC [Biceusra] (Eterna round: R96, puzzle: Same State 2) | 19 nM | 132 nM | 233 nM |  |  | 
UUAAUUAUGUAAGGAUAUACAUGAGGAUUUCUCGUAGAAGGUACAUUACAUGAGGAUCACCCAUGUAGGUGUCCGUAGACGCCA [JL SSNG1 1.07] (Eterna round: R96, puzzle: Same State NG 1) | 142 nM | 78.3 nM | 129 nM |  |  | 
CCGAUUUAUGGAGGAUAUGGAGCCUUAUUGGCUCCAGAAGGCUAAUAACAUGAGGAUCACCCAUGUCGGCGGUCUAAUGACCGA [Eli NG1ss - 52] (Eterna round: R96, puzzle: Same State NG 1) | 39.2 nM | 47.5 nM | 91.6 nM |  |  | 
AGAGGAGGCGCAGGAUAUACGACGGAGGACGUGGUAGAAGGGUGCAUGCGAAAACAUGAGGAUCACCCAUGUACCGCGCGACGA [ssng1 c] (Eterna round: R96, puzzle: Same State NG 1) | 816 nM | 30.1 nM | 126 nM |  |  | 
CGGCUUGUACAUGAGGAUCACCCAUGUAUGUACAAGUUUUUGCUCGUCUUAUAAAUACGAUCUACCGAAAGGUAGAU [BIOPHYS241_ElaineNg_1] (puzzle: Sensor for hsa-mir-208a version 2) |  |  |  | 276 nM | 18.7 nM | 236 nM
UCUUGGUUUUUGCUCGUUUUUUGUGUUGAACAUGAGGAUCACCCAUGUAUUGUACGGUCCGGUUUGGUAAUGGUCCA [JMF 9] (puzzle: Sensor for hsa-mir-208a) |  |  |  | 55.7 nM | 41.8 nM | 63.6 nM
GUUAUACAUGAGGAUCACCCAUGUCAAUGUAGUCGAGGAUAUGGGCAGCUAUGAGGCGUACUAGAAGGCGAGAAGU [Mat - Same State 1 - Mod of JL - D15] (puzzle: Same State 1) |  |  |  | 125 nM | 268 nM | 437 nM
CGUCGCUGUCGAGAGGAUAUGCGGUGAUGGACAUGAGGAUCACCCAUGUUAGCGAUAGCAUCGCGGCAGAAGGCUCUUACGACUG [Soteed Omei mod 28] (puzzle: Same State 2) |  |  |  | 18.6 nM | 19.8 nM | 23.7 nM
UACAAUCUAUCUCAGGAUAUCAUGUCAAAGACAUGAGGAUCACCCAUGUACCAGGAAACUGGUUAUGAGAAGGGAGAUAGAUUGU [Mat - Same State 2 - Mod - D24] (puzzle: Same State 2) |  |  |  | 136 nM | 35.4 nM | 77.9 nM
AAAAGAAACAUGUACCUGAGUACAUGAAAACAUGAGGAUCACCCAUGUAAUAAGUGGGUGUUUUGUCUUUGUCUUAU [JL pocket 34, mod 5] (Eterna round: R96, puzzle: Sensor for hsa-mir-208a) | 50.8 nM | 119 nM | 51.8 nM |  |  | 
AUUUUUAAUGCAGGAUAUGAUUAACAUGAGGAUCACCCAUGUGGUGUUGUGAGUAAGGAGAGUGAUCAGAAGGGCAUCUUUUUU [JMF's solution 81] (Eterna round: R96, puzzle: Same State NG 2) | 567 nM | 529 nM | 490 nM |  |  | 
GACCGCGAGGAAGGAUAUGGAGCCUAAUAGGCUCCAGAAGGUCCAUAAAGGACAUGAGGAUCACCCAUGUGGGCUGAAGCGGUC [Mat - Same State NG 1 - JL mod - D74] (Eterna round: R96, puzzle: Same State NG 1) | 18.3 nM | 21.4 nM | 34.7 nM |  |  | 
GUAAAACAUGAGGAUCACCCAUGUAAUAAUAUGGGAGGAUAUCUGAUUUAAUUUAAUUUAAGAGAAGGCCUAAAUG [Mat - Same State 1 - Mod of Eli - D58] (puzzle: Same State 1) |  |  |  | 39.9 nM | 318 nM | 608 nM
UUAAUGAAGUAAGGAUAUACAUGAGGAUUUCUCGUAGAAGGUACUAUACAUGAGGAUCACCCAUGUGCCGGUCCGUAGACUGGA [JL SSNG1 1.05] (Eterna round: R96, puzzle: Same State NG 1) | 342 nM | 297 nM | 607 nM |  |  | 
AAAAUACAUGAGGAUCACCCAUGUCUAAAGAACGGAGGAUAUAGGCGUGCAAAACACGCACUAGAAGGCUGGGUGC [Eserus] (puzzle: Same State 1) |  |  |  | 144 nM | 92.3 nM | 220 nM
CGUUCAUACUCAGGACGGAGAGUAGAGGAACAUGAGGAUCACCCAUGUAUGAGCUUUUUGCUCGUCAUUAACAGUAG [JR_SHM208a_Sub012] (puzzle: Sensor for hsa-mir-208a) |  |  |  | 61.8 nM | 43.4 nM | 81.2 nM
GGUCGGACAUGAGGAUCACCCAUGUGGUGAGCGGAAACGCCAUAGGAUAUCUGUCCGAAAAGGUCAGAGAAGGGUGAACCGACC [Fiskers NG3ss - 68] (Eterna round: R96, puzzle: Same State NG 3) | 184 nM | 311 nM | 135 nM |  |  | 
UUGGUUGUCGUAGGAUAUGUAGGAUAUUCCUACAUGAGGAUCACCCAUGUUCGCAUGGAAGAAGGACAGAAGGACGAUGACCAU [pwkr ssNG2 2FMN + 1F5.20] (Eterna round: R96, puzzle: Same State NG 2) | 16.8 nM | 904 nM | 836 nM |  |  | 
GGAGCCGGCACCGAGGAUAUUCAUAUUAAAACAUGAGGAUCACCCAUGUAGGUCAAAAGACCUUGGGAGAAGGCGGAUCGGCUCG [Xeonanis - 31] (puzzle: Same State 2) |  |  |  | 32.1 nM | 802 nM | 481 nM
AUUACUAACAUAGGAUAUCAUGCGAAAAUUGCGUGAGAAGGGUGGACACUGUCUUUCUCGGAGCACAUGAGGAUCACCCAUGUG [SameState NG1 #69] (Eterna round: R96, puzzle: Same State NG 1) | 81.4 nM | 41.5 nM | 65 nM |  |  | 
AAUCGUUUGAUAGGAUAUCGCUAUACAUGAGGAUCACCCAUGUUUACCACGCUGGUUUUUCAUACCGAGAAGGAUUCUGAUGAC [salish99_SSNG02_r04_002] (Eterna round: R96, puzzle: Same State NG 2) | 26.2 nM | 22.6 nM | 29.8 nM |  |  | 
